{"source": "patent US5747454A", "about": "“Chromogranin peptides” (Albert Einstein College of Medicine of Yeshiva University, priority 1995, dated 1998)", "origin": "cited, not measured here", "molecules": {"B1": {"name": "Chromogranin A: large, acidic protein found in the secretory granules of endocrine and neuroendocrine tissues including the parathyroid (protein, UniProt P10645 19-457, looked up)", "Chromogranin-A": "LPVNSPMNKGDTEVMKCIVEVISDTLSKPSPMPVSQECFETLRGDERILSILRHQNLLKELQDLALQGAKERAHQQKKHSGFEDELSEVLENQSSQAELKEAVEEPSSKDVMEKREDSKEAEKSGEATDGARPQALPEPMQESKAEGNNQAPGEEEEEEEEATNTHPPASLPSQKYPGPQAEGDSEGLSQGLVDREKGLSAEPGWQAKREEEEEEEEEAEAGEEAVPEEEGPTVVLNPHPSLGYKEIRKGESRSEALAVDGAGKPGAEEAQDPEGKGEQEHSQQKEEEEEMAVVPQGLFRGGKSGELEQEEERLSKEWEDSKRWSKMDQLAKELTAEKRLEGQEEEEDNRDSSMKLSFRARAYGFRGPGPQLRRGWRPSSREDSLEAGLPLQVRGYPEEKKEEEGSANRRPEDQELESLSAIEAELEKVAHQLQALRRG"}}, "test_system": "primary cultures of parathyroid cells"}
{"molecule": "B1", "values": [{"measurement": "inhibition of parathyroid hormone secretion", "result": "inhibit parathyroid hormone secretion"}]}
